Measurements as given in paper PMC4617317.

Experiments:
[1] = system: H-NS (Vibrio cholerae C7258?); assay: EMSA
[2] = system: VpsT (Vibrio cholerae C7258?); assay: EMSA

Row | Substance | Kd [1] [nM] | Kd [2] [nM]
1 | vpsA promoter -223 to -139 | 138 | 42.6
2 | vpsL promoter -262 to -185 | 204 | 35.4
